The results in this text go back to article PMC4073888.

In the data set the target is T1, 6xHis-NELF-E-mOrange (Drosophila, UniProt P92204 1-280).
T1 sequence: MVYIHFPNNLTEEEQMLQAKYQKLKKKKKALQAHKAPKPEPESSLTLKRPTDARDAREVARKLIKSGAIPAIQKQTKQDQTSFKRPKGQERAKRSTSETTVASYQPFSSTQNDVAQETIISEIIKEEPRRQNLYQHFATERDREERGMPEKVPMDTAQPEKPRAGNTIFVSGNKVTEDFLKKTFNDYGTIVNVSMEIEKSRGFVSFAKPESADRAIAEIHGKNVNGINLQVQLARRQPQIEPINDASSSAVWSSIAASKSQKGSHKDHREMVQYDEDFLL
Briefly: HiTS-RAP fluorescence.

B1: NELFapt A39U_U61A (structured_RNA)
RNA: GGGAAUGGAUCCACAUCUACGAAUUCCCAACGACUGCCGAGCGAGAUUACGCUUGAGCGCCCCUCUGAGGAUGCCCACGGGCGAUAGGGGCACGGCUUCACUGCAGACUUGACGAAGCUU
For B1, the binding result is given as “binds”.
